Measurements reported in PMC9686918 (2022).

Experiments:
[1] = biological target: T1, Methylglyoxal-modified human serum albumin (HSA-MG) (Homo sapiens, UniProt P02768); test: chlorinating activity inhibition (celestine blue B, H2O2 varied)
[2] = biological target: T1, Methylglyoxal-modified human serum …; test: peroxidase activity inhibition (ABTS, H2O2 varied)
[3] = biological target: T1, Methylglyoxal-modified human serum …; test: chlorinating activity inhibition (celestine blue B, NaCl varied)
[4] = biological target: T1, Methylglyoxal-modified human serum …; test: ELISA (Scatchard plot)
[5] = biological target: T1, Methylglyoxal-modified human serum …; test: peroxidase activity inhibition (ABTS varied)

B1: Myeloperoxidase (protein)
chain: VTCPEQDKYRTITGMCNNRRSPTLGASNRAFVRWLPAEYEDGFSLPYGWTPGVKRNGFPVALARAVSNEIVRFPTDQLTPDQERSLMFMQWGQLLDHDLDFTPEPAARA
modifications: methylglyoxal-modified HSA
Ki [1]: 800 nM | Ki [2]: 840 nM | Ki [3]: 940 nM | Kd [4]: 1.5 nM | Ki [5]: 1080 nM
